Data: article PMC2744598

How the values were obtained:
[1] = biological target: Ddi1 UBA, fluorescent free domain (yeast) (UniProt P40087); experiment: fluorescence polarisation
[2] = biological target: Dsk2 UBA, fluorescent free domain (yeast) (UniProt P48510); experiment: fluorescence polarisation
Ede1_rhodamine (yeast) = Ede1_rhodamine (yeast) (UniProt P34216); experiment: fluorescence polarisation
[3] = biological target: fluorescein-labeled hHR23A-UBA1 (human); experiment: fluorescence polarisation
GST-Ede1 UBA (yeast) = GST-Ede1 UBA (yeast) (UniProt P34216); experiment: SPR
Sequence of GST-Ede1 UBA (yeast) (P34216 1338-1380): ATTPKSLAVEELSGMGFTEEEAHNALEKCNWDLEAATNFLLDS

[4] = biological target: GST-His/GST-Ede1 heterodimer of the functionally monomeric mixture (not stated | yeast) (UniProt P34216); experiment: SPR
GST-hHR23A UBA1 (human) = experiment: SPR
[5] = biological target: GST-DRM2 UBA1 (Arabidopsis); experiment: SPR

Sequence of Ede1_rhodamine (yeast) (P34216 1338-1380): as above
Sequence of Dsk2 UBA, fluorescent free domain (yeast) (P48510 327-371): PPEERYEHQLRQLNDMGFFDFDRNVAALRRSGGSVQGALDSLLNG
Sequence of Ddi1 UBA, fluorescent free domain (yeast) (P40087 389-428): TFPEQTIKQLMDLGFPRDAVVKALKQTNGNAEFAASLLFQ

| Kd [1] | Kd [2] | Kd (Ede1_rhodamine (yeast)) | Kd [3] | Kd (GST-Ede1 UBA (yeast)) | Kd [4] | Kd (GST-hHR23A UBA1 (human)) | Kd [5] | Substance |
| --- | --- | --- | --- | --- | --- | --- | --- | --- |
| 92 µM | 2.2 µM | 54 µM | 30 µM | 6 µM | 23 µM | 4.7 µM | – | K63-linked tetraubiquitin (from UniProt P0CG48 1-76) |
| – | – | 120 µM | – | 48 µM | – | 26 µM | 89 µM | K63-linked diubiquitin (from UniProt P0CG48 1-76) |
| – | – | 86 µM | – | 110 µM | – | 36 µM | 140 µM | K48-linked diubiquitin (from UniProt P0CG48 1-76) |
| 50 µM | 1.4 µM | 31 µM | 9 µM | 25 µM | 44 µM | – | – | K48-linked tetraubiquitin (from UniProt P0CG48 1-76) |
